From the supplement of paper PMC12042874
± gives the uncertainty stated by the source.

experiment: amyloid nucleation score (Sup35N fusion, yeast selection) (log enrichment); library NNK2; higher = more nucleation; inactive = no reads after selection
Outline: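 Plasmid inserts were Illumina-sequenced at input and output from psi-negative yeast expressing Sup35N fused to peptides of 20 random codons. The yeast were induced with 100 μM copper sulfate for 24 hours and grown 7 days at 30°C on medium lacking adenine and uracil, and sequences with under 100 input reads were excluded. Nucleation score is the DiMSum log enrichment of output over input reads, centred on the mode score of non-aggregating sequences.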

Compared with RNGVNRLELGFLIETLHNAC, PAFQCMVQMKPGLWVV is lower in amyloid nucleation score: 4.622 ± 0.038 for the first, -0.456 ± 0.78 for the second.

LLKGVASVQSTDAVRHMWSS and NGFVSSSRSFICFRWKWRYY are within error of each other in amyloid nucleation score: 0.252 ± 0.8 for the first, 0.255 ± 1.1 for the second.

Going from SYYINFISVRILDLNKFNVQ to KIFFGNNRF, the amyloid nucleation score falls from 5.03 ± 0.11 to 3.4 ± 0.13.

Going from LGRKR to RLLFSDCFLVFLPMGCFAFF, the amyloid nucleation score rises from -0.725 ± 0.76 to 3.69 ± 0.07.

FMGTLNRELYTGRYGVG and QWIWSHSNHNSWIPGSGVVD are within error of each other in amyloid nucleation score: -0.243 ± 1 for the first, -1.13 ± 0.76 for the second.

First: KNLRWCQGFSRGIECRSLMV
Second: CLAVIQWFPCIVDMGLECGF
The amyloid nucleation score of the first is lower: -0.639 ± 0.55 for the first, 2.96 ± 0.049 for the second.

Going from QKHPGFKYHQNLRLVSLSKR to LVLPYSGTHAGLRVWCGSSV, the amyloid nucleation score rises from -0.837 ± 0.45 to 0.696 ± 0.34.

Compared with VIMMSNNSERYYVEQIFVSG, DLSHNVNVCICFCWAMRYDA is higher in amyloid nucleation score: 0.09 ± 0.41 for the first, 8.342 ± 0.045 for the second.

First: WWTIIICNWSVSKGQDDNRA
Second: VLFSHQDEGLWHIHVHF
The amyloid nucleation score of the first is higher: 7.238 ± 0.059 for the first, 3.28 ± 0.052 for the second.

TSHSCGYLWCSLV and IVSETKITIVC are within error of each other in amyloid nucleation score: 0.211 ± 0.61 for the first, -0.275 ± 0.48 for the second.

Compared with KRRKSSTTVSKVGTGLEWMG, SLGHGKYMVCWGWYALGFYK is lower in amyloid nucleation score: 0.874 ± 0.15 for the first, -0.368 ± 0.28 for the second.

Going from ILSSFMQ to HFNLCTQNMSNGYRDCRHT, the amyloid nucleation score rises from -0.2 ± 0.41 to 4.68 ± 0.11.

Compared with YTLFPAVLECDQVLYVSVNF, FVNLRVILH is lower in amyloid nucleation score: 6.491 ± 0.037 for the first, 5.18 ± 0.052 for the second.

Going from DSDNIPNHTYMILFGIQFHS to HVSTSLYTIGSSVSWGMFQG, the amyloid nucleation score rises from -0.311 ± 0.65 to 0.897 ± 0.47.

YFWQEIVAFNKVESLILELG and ETSFSTVRRQILSLLRLVSS are within error of each other in amyloid nucleation score: -0.451 ± 1 for the first, 0.326 ± 0.33 for the second.

DIYPRLLEDVFYPFVQPHLF and WMRSIWLSQHFLS are within error of each other in amyloid nucleation score: -0.505 ± 1.1 for the first, 0.292 ± 0.41 for the second.

DFGKIGEWDWAGGVYLSAWR and SLYVKFPFMSDWLSMNHRMN are within error of each other in amyloid nucleation score: -0.137 ± 1.1 for the first, -0.64 ± 0.34 for the second.

First: LCGFTIPSNVSLGRR
Second: DNVMLYKRKKQRPIMVPWSA
The amyloid nucleation score of the first is higher: 4 ± 0.11 for the first, -0.488 ± 0.35 for the second.

Going from QWNMRAAQCTTNS to LHCLAISFNNFSLMVLYAGN, the amyloid nucleation score falls from 0.722 ± 0.34 to -0.187 ± 0.54.

TVVVYIRYRTPMRMVTPPSQ and GKTYVGYFLFNLTGTVYFKR are within error of each other in amyloid nucleation score: 0.986 ± 0.21 for the first, 0.004 ± 1.1 for the second.

First: EWNAKLWSLPSGATGCKSQS
Second: MNVYMGFTKVLSAVPRLLYG
The amyloid nucleation score of the first is higher: 1.16 ± 0.2 for the first, -0.408 ± 0.56 for the second.

First: ISLAINIAPLLLCTESTEWG
Second: VTALDMFVLSWGCGWGMN
The amyloid nucleation score of the first is lower: -0.133 ± 0.65 for the first, 3.06 ± 0.17 for the second.

Going from LCSFAMKLVCNRVMAFDIES to YNLCWCRVIDFCLCWYCILW, the amyloid nucleation score rises from 1.68 ± 0.19 to 4.94 ± 0.081.

First: GIIISRSNKLFFVKCCNN
Second: NYGSSRLAPVHNT
The amyloid nucleation score of the first is lower: 1.7 ± 0.079 for the first, 3.17 ± 0.12 for the second.

Going from GRNLFSFVFQMLV to SFRMKAALRRGNPNRAMDLT, the amyloid nucleation score rises from 0.043 ± 0.29 to 2.33 ± 0.098.

RVHSCCTGKIGYKGVIVISV and GLSNR are within error of each other in amyloid nucleation score: 0.051 ± 0.43 for the first, 0.458 ± 0.28 for the second.

First: YLSNKT
Second: HIIGLIYQKGTSWTA
The amyloid nucleation score of the first is lower: -0.515 ± 0.29 for the first, 4.85 ± 0.073 for the second.

Going from MAGVTPLELLCGPNQFALMR to KVRFHSL, the amyloid nucleation score rises from 1.95 ± 0.48 to 2.72 ± 0.11.

First: NFSDFRCLL
Second: IRKGSHGSKMIEPVAMRSAC
The amyloid nucleation score of the first is lower: -0.031 ± 1 for the first, 4.88 ± 0.083 for the second.

FEWWTSMGGGECVQRNNSVA and TYTKFISILRSALSLMYLAS are within error of each other in amyloid nucleation score: 0.697 ± 0.41 for the first, 0.972 ± 0.67 for the second.

First: IDSVIKTEARGQGVVARTRA
Second: SIAKFGWTIGRLGYIHIFIL
The amyloid nucleation score of the first is higher: 1.33 ± 0.28 for the first, -1.16 ± 1.1 for the second.

LVKKWVWLLCCYRISWGRLR and MQLCYKYRTVVTSSLDPEYM are within error of each other in amyloid nucleation score: -0.346 ± 0.28 for the first, -0.066 ± 0.74 for the second.

GIFIFNAFEEMSVGKDSELL and CYLVYFSYKLHQI are within error of each other in amyloid nucleation score: -0.529 ± 0.27 for the first, -1.43 ± 1.1 for the second.

Going from NSRISKNNLSRSLT to SVSYTNVLYHIKVDEFFNEC, the amyloid nucleation score rises from -0.196 ± 0.56 to 1.3 ± 0.25.

Going from SGTGKVCVVLVHKTSVQRKC to SMFFYSFNWLQFYFRVDVHW, the amyloid nucleation score falls from 1.14 ± 0.3 to -0.311 ± 1.1.

Substance TLCMRLN has an amyloid nucleation score of 1.64 ± 0.086.

In the case of HSWNV, the amyloid nucleation score is reported as “inactive”.
In the case of LNYRH, the amyloid nucleation score is reported as “inactive”.
With CNVSSWSFLPPS the amyloid nucleation score was “inactive”.
With FFRVQINEGDQGYQSQYF the amyloid nucleation score was “inactive”.
For RKILVKMNYFMRHLMNCVTE, the amyloid nucleation score was “inactive”.
For FRNENC, the amyloid nucleation score was “inactive”.
With YCFVDALSCDLPNHEHMDVF the amyloid nucleation score was “inactive”.
In the case of YSTIKIHLPGLVVRNQSLVR, the amyloid nucleation score is reported as “inactive”.
With DLSVLDLGVLFINRFTRTLE the amyloid nucleation score was “inactive”.
For ENQPVELSTTRDTRAGMSDT, the amyloid nucleation score was “inactive”.
In the case of LHHYAFFSHM, the amyloid nucleation score is reported as “inactive”.
With NDSNYKPANSYRSPSGNRMV the amyloid nucleation score was “inactive”.
In the case of VRLNMFFSGEFCQGMQLWVS, the amyloid nucleation score is reported as “inactive”.
For KTGYINCSIMDYMV, the amyloid nucleation score was “inactive”.
